Experimental data: patent US20230064326A1, “OPTOGENETIC COMPOSITIONS COMPRISING A CBh PROMOTER SEQUENCE AND METHODS FOR USE” (Vedere Bio II, Inc., priority 2021, published 2023)

System: NHP retinas
Assay: SNAP immunostaining to visualize SNAP-mGluR2 expression in NHP retinas
Format: in vivo, Cynomolgus macaques and African Green monkeys
Conditions: non-human primates; central and peripheral retina

B1: CBh promoter: promoter of SEQ ID NO: 1: CMV enhancer, chicken beta actin promoter and hybrid intron; in b245 driving SNAP-mGluR2 (nucleic acid)
DNA: CGTTACATAACTTACGGTAAATGGCCCGCCTGGCTGACCGCCCAACGACCCCCGCCCATTGACGTCAATAATGACGTATGTTCCCATAGTAACGCCAATAGGGACTTTCCATTGACGTCAATGGGTGGAGTATTTACGGTAAACTGCCCACTTGGCAGTACATCAAGTGTATCATATGCCAAGTACGCCCCCTATTGACGTCAATGACGGTAAATGGCCCGCCTGGCATTATGCCCAGTACATGACCTTATGGGACTTTCCTACTTGGCAGTACATCTACGTATTAGTCATCGCTATTACCATGGTCGAGGTGAGCCCCACGTTCTGCTTCACTCTCCCCATCTCCCCCCCCTCCCCACCCCCAATTTTGTATTTATTTATTTTTTAATTATTTTGTGCAGCGATGGGGGCGGGGGGGGGGGGGGGGCGCGCGCCAGGCGGGGCGGGGCGGGGCGAGGGGCGGGGCGGGGCGAGGCGGAGAGGTGCGGCGGCAGCCAATCAGAGCGGCGCGCTCCGAAAGTTTCCTTTTATGGCGAGGCGGCGGCGGCGGCGGCCCTATAAAAAGCGAAGCGCGCGGCGGGCGGGAGTCGCTGCGACGCTGCCTTCGCCCCGTGCCCCGCTCCGCCGCCGCCTCGCGCCGCCCGCCCCGGCTCTGACTGACCGCGTTACTCCCACAGGTGAGCGGGCGGGACGGCCCTTCTCCTCCGGGCTGTAATTAGCTGAGCAAGAGGTAAGGGTTTAAGGGATGGTTGGTTGGTGGGGTATTAATGTTTAATTACCTGGAGCACCTGCCTGAAATCACTTTTTTTCAG
modifications: misc_feature 1..812 CBH promoter sequence
notes: in b245 driving SNAP-mGluR2
expression of a SNAP-mGluR2 transgene, promoter comparison (CBh vs synapsin): much more robust expression
